What all share (assay): SPR
Holding throughout (settings): both partners purified

One test concerns the target T1, Spike (BA.1) (SARS-CoV-2, Omicron BA.1, strain).
T1 construct: source: bought: Sino Biological

The target in the next test is T2, RBD (BA.4/5) (SARS-CoV-2, Omicron BA.4/5, strain).
T2 construct: source: bought: Sino Biological

Another test deals with T3, Spike (BA.4/5) (SARS-CoV-2, Omicron BA.4/5, strain).
T3 construct: source: bought: Sino Biological

Another test addresses T4, RBD (BA.1) (SARS-CoV-2 Omicron BA.1, strain).
T4 construct: source: bought: Sino Biological

A further test concerns the target T5, Spike (XBB) (SARS-CoV-2, Omicron XBB, strain).
T5 construct: source: bought: Sino Biological

For a further test, the target named is T6, Spike (XBB.1.5) (SARS-CoV-2, Omicron XBB.1.5, strain).
T6 construct: source: bought: Sino Biological

In test [1] the target is SARS-CoV-2 Omicron XBB spike protein (SARS-CoV-2 Omicron XBB, strain).
The target of test [2] is SARS-CoV-2 Omicron XBB.1.5 spike protein (SARS-CoV-2 Omicron XBB.1.5, strain).

For seven molecules, Kd results are on record in article PMC10267556 (Nature Communications, 2023).

B1: TH027 (antibody, V domains shown)
VH: QITLKESGLTLVRPTQTLTLTCTFSGFSLINSGVGVGWIRQPPGKALEWLALIYWDDDKRYNPSLRSRLTISKATSKNQVVLTMTNMDPVDTATYYCTHRGPGHNTPIYFEFWGQGALVTVSS
VL: QSVLTQSPSASGTPGQRVTISCSGSRSNIGSNFVYWFHQLPGTAPKLLIHSNDQRPSGVPDRFSGSNSGTSASLAISGLRSEDEADYYCAAWDDSLSSWVFGGGTKLTVL
notes: IgG1 (D2:p3)
With B1, the Kd in the test with Spike (BA.1) is 7.06 nM; with RBD (BA.4/5), 0.752 nM; with Spike (BA.4/5), 1.86 nM; in the test with RBD (BA.1), 0.838 nM.

B2: TH003 (antibody, V domains shown)
VH: EVRLLESGGGLVQPGGSLRLSCAASGFTFNDYAMSWVRQAPGEGLEWVSTISYSGGSTYYADSVKGRFTISRDNSKNMLYLQMNSLRAEDTALYYCANGVATADWYFDLWGRGTLVTVSS
VL: QSALTQPRSVSGSPGQSVTISCTGTSSDVGGYNYVSWFQHHPGKAPKLMIYDVTDRPSGVPDRFSGSKSGNTASLTISGLQAEDAADYYCCSYAGTYTVFGGGTKLTVL
notes: IgG1 (D2:p3)
On to B2, for which the Kd worked out at 2.55 nM with Spike (BA.1), 0.484 nM with RBD (BA.4/5), 1.59 nM in the test with Spike (BA.4/5) and 1.29 nM with RBD (BA.1).

B3: TH132 (antibody, V domains shown)
VH: EVQLVESGGGLVQPGGSLRLSCAASGITVSRNYMSWVRQAPGKGLEWVSVMFAGGSTFYADSVKGRFTISRDNSKNTLYLQMNSLRAEDTAVYYCARDLGVVGATDYWGQGTLVTVSS
VL: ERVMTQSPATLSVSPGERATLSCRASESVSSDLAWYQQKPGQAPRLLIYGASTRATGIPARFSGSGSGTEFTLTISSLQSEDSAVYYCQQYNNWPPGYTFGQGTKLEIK
notes: IgG1 (D2:p3)
On to B3, for which the Kd in the test with Spike (BA.1) was 1.26 nM; in the test with RBD (BA.4/5) it was 0.484 nM; with Spike (BA.4/5), 0.00171 nM; with RBD (BA.1), 0.726 nM; with Spike (XBB), 1.34 nM; in the test with Spike (XBB.1.5), 1.09 nM.

B4: TH132 monoclonal antibody (IgG) (antibody, V domains shown)
VH: EVQLVESGGGLVQPGGSLRLSCAASGITVSRNYMSWVRQAPGKGLEWVSVMFAGGSTFYADSVKGRFTISRDNSKNTLYLQMNSLRAEDTAVYYCARDLGVVGATDYWGQGTLVTVSS
VL: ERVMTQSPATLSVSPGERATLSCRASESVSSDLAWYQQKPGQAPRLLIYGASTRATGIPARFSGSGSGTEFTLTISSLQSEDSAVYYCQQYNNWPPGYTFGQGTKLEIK
notes: copies: 2 + 2
With B4, the Kd in test [1] and in test [2] was roughly 1 nM in each case.

B5: TH281 (antibody, V domains shown)
VH: EVQLVESGGGLVQPGGSLRLSCAASEITVSRNYMSWVRQAPGKGLEWVSVMFAGGSTFYADSVKGRFTISRDNSKNTLYLQMNSLRAEDTAVYYCARDLGVVGATDYWGQGTLVTVSS
VL: not shown
notes: IgG1 (D2:p3)
As to B5, the Kd came to 0.517 nM with Spike (BA.1), 0.00781 nM in the test with RBD (BA.4/5) and 0.119 nM with RBD (BA.1).

B6: TH236 (antibody, V domains shown)
VH: QVQLVESGGGLVKPGGSLRLSCAASGFMISDSYMNWIRQPPGKGLEWVSYISSNGYAIYYGDSVKGRFTISRDNAKNFLYLQMNSLRVEDTAVYYCAREQPGGYYDSSGYRLDPWGQGILVTVSS
VL: QSALTQPASVSGSPGQSITISCTGTSSDVGGYNYVSWYQQHPGKAPKLMIYDVSNRPSGVSNRFSGSKSGNTASLTISGLQAEDEADYYCSSYTSSSTLYVFGTGTKVTVL
notes: IgG1 (D2:p3)
For the molecule B6, the Kd in the test with Spike (BA.1) was found to be 0.0867 nM; in the test with RBD (BA.4/5), 0.621 nM; with Spike (BA.4/5) it was 0.602 nM; in the test with RBD (BA.1), 0.3 nM.

B7: TH272 (antibody, V domains shown)
VH: QITLKESGPTLVKPTQTLTLTCTFSGFSLSTGGVSVGWIRQPPGKALEWLALIYWDDDKRYSPSLESRLTITKDTSKNLVVLTLTNMDPVDTATYYCAHKTIPTIFDYWGQGTLVTVSS
VL: QSALTQPASVSGSPGQSITISCTATSSDVGAYQYVSWYQQYPGKAPKLMIYEVSKRPSGVSNRFSGSKSGNTASLTISGLQAEDDAYYYCNSYTTSSVVFGGGTKLTVL
notes: IgG1 (D2:p3)
Consider B7, for which the Kd in the test with Spike (BA.1) stood at 1.33 nM; with RBD (BA.4/5) it was 0.045 nM; in the test with Spike (BA.4/5), 0.000976 nM; with RBD (BA.1), 0.296 nM.
